First the molecules themselves.
B1: Ras-related protein Rab-8A (Homo sapiens), P61006 (parent)
chain: MAKTYDYLFKLLLIGDSGVGKTCVLFRFSEDAFNSTFISTIGIDFKIRTIELDGKRIKLQIWDTAGQERFRTITTAYYRGAMGIMLVYDITNEKSFDNIRNWIRNIEEHASADVEKMILGNKCDVNDKRQVSKERGEKLALDYGIKFMETSAKANINVENAFFTLARDIKAKMDKKLEGNSPQGSNQGVKITPDQQKRSSFFRCVLL
partner: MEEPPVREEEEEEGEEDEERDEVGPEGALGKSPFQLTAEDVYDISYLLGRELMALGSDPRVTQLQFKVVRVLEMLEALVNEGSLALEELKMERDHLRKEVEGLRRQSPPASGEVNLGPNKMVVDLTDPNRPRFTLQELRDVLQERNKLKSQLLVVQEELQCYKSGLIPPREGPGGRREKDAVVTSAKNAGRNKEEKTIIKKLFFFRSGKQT
B2: RILP-like protein 2 (Homo sapiens), Q969X0 (parent)
chain: B1 partner

The first experiment covers variants of B1. The conditions noted are these: with ripl2_human RILPL2, Q969X0.
As for MAKTYDYLFKLLLIGDSGVGKTCVLFRFSEDAFNSTFISTIGIAFKIRTIELDGKRIKLQIWDTAGQERFRTITTAYYRGAMGIMLVYDITNEKSFDNIRNWIRNIEEHASADVEKMILGNKCDVNDKRQVSKERGEKLALDYGIKFMETSAKANINVENAFFTLARDIKAKMDKKLEGNSPQGSNQGVKITPDQQKRSSFFRCVLL [D44A], the “effect of a mutation on the interaction” value was “disrupting interaction strength”.

As to MAKAYDYLFKLLLIGDSGVGKTCVLFRFSEDAFNSTFISTIGIDFKIRTIELDGKRIKLQIWDTAGQERFRTITTAYYRGAMGIMLVYDITNEKSFDNIRNWIRNIEEHASADVEKMILGNKCDVNDKRQVSKERGEKLALDYGIKFMETSAKANINVENAFFTLARDIKAKMDKKLEGNSPQGSNQGVKITPDQQKRSSFFRCVLL [T4A], the “effect of a mutation on the interaction” value was “with no effect”.

The variants in another experiment derive from B2. The conditions noted are these: with rab8a_human RAB8A.
Regarding MEEPPVREEEEEEGEEDEERDEVGPEGALGKSPFQLTAEDVYDISYLLGRELMALGSDPRVTQLQFKVVRVLEMLEALVNEGSLALEELKMERDHLRKEVEGLRRQSPPASGEVNLGPNKMVVDLTDPNRPRFTAQELRDVLQERNKLKSQLLVVQEELQCYKSGLIPPREGPGGRREKDAVVTSAKNAGRNKEEKTIIKKLFFFRSGKQT [L135A], the “effect of a mutation on the interaction” value was “decreasing interaction strength”.

For MEEPPVREEEEEEGEEDEERDEVGPEGALGKSPFQLTAEDVYDISYLLGRELMALGSDPRVTQLQFKVVRVLEMLEALVNEGSLALEELKMERDHLRKEVEGLRRQSPPASGEVNLGPNKMVVDLTDPNQPRFTLQELRDVLQERNKLKSQLLVVQEELQCYKSGLIPPREGPGGRREKDAVVTSAKNAGRNKEEKTIIKKLFFFRSGKQT [R130Q], the “effect of a mutation on the interaction” value is on record as “decreasing interaction strength”.

Take MEEPPVREEEEEEGEEDEERDEVGPEGALGKSPFQLTAEDVYDISYLLGRELMALGSDPRVTQLQFKVVRVLEMLEALVNEGSLALEELKMERDHLRKEVEGLRRQSPPASGEVNLGPNKMVVDLTDPNAPRFTLQELRDVLQERNKLKSQLLVVQEELQCYKSGLIPPREGPGGRREKDAVVTSAKNAGRNKEEKTIIKKLFFFRSGKQT [R130A]: the “effect of a mutation on the interaction” value is reported as “decreasing interaction strength”.

In the case of MEEPPVREEEEEEGEEDEERDEVGPEGALGKSPFQLTAEDVYDISYLLGRELMALGSDPRVTQLQFKVVRVLEMLEALVNEGSLALEELKMERDHLRKEVEGLRRQSPPASGEVNLGPNKMVVDLTDPNEPRFTLQELRDVLQERNKLKSQLLVVQEELQCYKSGLIPPREGPGGRREKDAVVTSAKNAGRNKEEKTIIKKLFFFRSGKQT [R130E], the “effect of a mutation on the interaction” value is reported as “disrupting interaction strength”.

Regarding MEEPPVREEEEEEGEEDEERDEVGPEGALGKSPFQLTAEDVYDISYLLGRELMALGSDPRVTQLQFKVVRVLEMLEALVNEGSLALEELKMERDHLRKEVEGLRRQSPPASGEVNLGPNKMVVDLTDPNKPRFTLQELRDVLQERNKLKSQLLVVQEELQCYKSGLIPPREGPGGRREKDAVVTSAKNAGRNKEEKTIIKKLFFFRSGKQT [R130K], the “effect of a mutation on the interaction” value is “decreasing interaction strength”.

On to MEEPPVREEEEEEGEEDEERDEVGPEGALGKSPFQLTAEDVYDISYLLGRELMALGSDPRVTQLQFKVVRVLEMLEALVNEGSLALEELKMERDHLRKEVEGLRRQSPPASGEVNLGPNKMVVDLTDPNRARFTLQELRDVLQERNKLKSQLLVVQEELQCYKSGLIPPREGPGGRREKDAVVTSAKNAGRNKEEKTIIKKLFFFRSGKQT [P131A], for which the “effect of a mutation on the interaction” value is reported as “decreasing interaction strength”.

With MEEPPVREEEEEEGEEDEERDEVGPEGALGKSPFQLTAEDVYDISYLLGRELMALGSDPRVTQLQFKVVRVLEMLEALVNEGSLALEELKMERDHLRKEVEGLRRQSPPASGEVNLGPNKMVVDLTDPNRRRFTLQELRDVLQERNKLKSQLLVVQEELQCYKSGLIPPREGPGGRREKDAVVTSAKNAGRNKEEKTIIKKLFFFRSGKQT [P131R], the “effect of a mutation on the interaction” value is recorded as “decreasing interaction strength”.

Take MEEPPVREEEEEEGEEDEERDEVGPEGALGKSPFQLTAEDVYDISYLLGRELMALGSDPRVTQLQFKVVRVLEMLEALVNEGSLALEELKMERDHLRKEVEGLRRQSPPASGEVNLGPNKMVVDLTDPNRKRFTLQELRDVLQERNKLKSQLLVVQEELQCYKSGLIPPREGPGGRREKDAVVTSAKNAGRNKEEKTIIKKLFFFRSGKQT [P131K]: the “effect of a mutation on the interaction” value is on record as “decreasing interaction strength”.

For MEEPPVREEEEEEGEEDEERDEVGPEGALGKSPFQLTAEDVYDISYLLGRELMALGSDPRVTQLQFKVVRVLEMLEALVNEGSLALEELKMERDHLRKEVEGLRRQSPPASGEVNLGPNKMVVDLTDPNRCRFTLQELRDVLQERNKLKSQLLVVQEELQCYKSGLIPPREGPGGRREKDAVVTSAKNAGRNKEEKTIIKKLFFFRSGKQT [P131C], the “effect of a mutation on the interaction” value is on record as “decreasing interaction strength”.

Consider MEEPPVREEEEEEGEEDEERDEVGPEGALGKSPFQLTAEDVYDISYLLGRELMALGSDPRVTQLQFKVVRVLEMLEALVNEGSLALEELKMERDHLRKEVEGLRRQSPPASGEVNLGPNKMVVDLTDPNRPRATLQELRDVLQERNKLKSQLLVVQEELQCYKSGLIPPREGPGGRREKDAVVTSAKNAGRNKEEKTIIKKLFFFRSGKQT [F133A], for which the “effect of a mutation on the interaction” value is listed as “disrupting interaction strength”.

Regarding MEEPPVREEEEEEGEEDEERDEVGPEGALGKSPFQLTAEDVYDISYLLGRELMALGSDPRVTQLQFKVVRVLEMLEALVNEGSLALEELKMERDHLRKEVEGLRRQSPPASGEVNLGPNKMVVDLTDPNRPRFTLQELADVLQERNKLKSQLLVVQEELQCYKSGLIPPREGPGGRREKDAVVTSAKNAGRNKEEKTIIKKLFFFRSGKQT [R139A], the “effect of a mutation on the interaction” value is “with no effect”.

As to MEEPPVREEEEEEGEEDEERDEVGPEGALGKSPFQLTAEDVYDISYLLGRELMALGSDPRVTQLQFKVVRVLEMLEALVNEGSLALEELKMERDHLRKEVEGLRRQSPPASGEVNLGPNKMVVDLTDPNRPRFTLQELEDVLQERNKLKSQLLVVQEELQCYKSGLIPPREGPGGRREKDAVVTSAKNAGRNKEEKTIIKKLFFFRSGKQT [R139E], the “effect of a mutation on the interaction” value is on record as “decreasing interaction strength”.

Regarding MEEPPVREEEEEEGEEDEERDEVGPEGALGKSPFQLTAEDVYDISYLLGRELMALGSDPRVTQLQFKVVRVLEMLEALVNEGSLALEELKMERDHLRKEVEGLRRQSPPASGEVNLGPNKMVVDLTDPNRPRFTLQELQDVLQERNKLKSQLLVVQEELQCYKSGLIPPREGPGGRREKDAVVTSAKNAGRNKEEKTIIKKLFFFRSGKQT [R139Q], the “effect of a mutation on the interaction” value was “with no effect”.

As for MEEPPVREEEEEEGEEDEERDEVGPEGALGKSPFQLTAEDVYDISYLLGRELMALGSDPRVTQLQFKVVRVLEMLEALVNEGSLALEELKMERDHLRKEVEGLRRQSPPASGEVNLGPNKMVVDLTDPNRPRFTLQELRDVLQERNKLESQLLVVQEELQCYKSGLIPPREGPGGRREKDAVVTSAKNAGRNKEEKTIIKKLFFFRSGKQT [K149E], the “effect of a mutation on the interaction” value is recorded as “decreasing interaction strength”.

With MEEPPVREEEEEEGEEDEERDEVGPEGALGKSPFQLTAEDVYDISYLLGRELMALGSDPRVTQLQFKVVRVLEMLEALVNEGSLALEELKMERDHLRKEVEGLRRQSPPASGEVNLGPNKMVVDLTDPNRPRFTLQELRDVLQERNKLASQLLVVQEELQCYKSGLIPPREGPGGRREKDAVVTSAKNAGRNKEEKTIIKKLFFFRSGKQT [K149A], the “effect of a mutation on the interaction” value is “decreasing interaction strength”.

In the case of MEEPPVREEEEEEGEEDEERDEVGPEGALGKSPFQLTAEDVYDISYLLGRELMALGSDPRVTQLQFKVVRVLEMLEALVNEGSLALEELKMERDHLRKEVEGLRRQSPPASGEVNLGPNKMVVDLTDPNRPRFTLQELRDVLQERNKLQSQLLVVQEELQCYKSGLIPPREGPGGRREKDAVVTSAKNAGRNKEEKTIIKKLFFFRSGKQT [K149Q], the “effect of a mutation on the interaction” value is reported as “decreasing interaction strength”.

As to MEEPPVREEEEEEGEEDEERDEVGPEGALGKSPFQLTAEDVYDISYLLGRELMALGSDPRVTQLQFKVVRVLEMLEALVNEGSLALEELKMERDHLRKEVEGLRRQSPPASGEVNLGPNKMVVDLTDPNRPQFTLQELRDVLQERNKLKSQLLVVQEELQCYKSGLIPPREGPGGRREKDAVVTSAKNAGRNKEEKTIIKKLFFFRSGKQT [R132Q], the “effect of a mutation on the interaction” value is given as “disrupting interaction strength”.

For MEEPPVREEEEEEGEEDEERDEVGPEGALGKSPFQLTAEDVYDISYLLGRELMALGSDPRVTQLQFKVVRVLEMLEALVNEGSLALEELKMERDHLRKEVEGLRRQSPPASGEVNLGPNKMVVDLTDPNRPEFTLQELRDVLQERNKLKSQLLVVQEELQCYKSGLIPPREGPGGRREKDAVVTSAKNAGRNKEEKTIIKKLFFFRSGKQT [R132E], the “effect of a mutation on the interaction” value was “disrupting interaction strength”.

MEEPPVREEEEEEGEEDEERDEVGPEGALGKSPFQLTAEDVYDISYLLGRELMALGSDPRVTQLQFKVVRVLEMLEALVNEGSLALEELKMERDHLRKEVEGLRRQSPPASGEVNLGPNKMVVDLTDPNRPKFTLQELRDVLQERNKLKSQLLVVQEELQCYKSGLIPPREGPGGRREKDAVVTSAKNAGRNKEEKTIIKKLFFFRSGKQT [R132K]: the “effect of a mutation on the interaction” value is reported as “disrupting interaction strength”.

Turning to MEEPPVREEEEEEGEEDEERDEVGPEGALGKSPFQLTAEDVYDISYLLGRELMALGSDPRVTQLQFKVVRVLEMLEALVNEGSLALEELKMERDHLRKEVEGLRRQSPPASGEVNLGPNKMVVDLTDPNRPRFTLQELRDVLQERNKLKSQLLVVQQELQCYKSGLIPPREGPGGRREKDAVVTSAKNAGRNKEEKTIIKKLFFFRSGKQT [E157Q], the “effect of a mutation on the interaction” value was “decreasing interaction strength”.

As for MEEPPVREEEEEEGEEDEERDEVGPEGALGKSPFQLTAEDVYDISYLLGRELMALGSDPRVTQLQFKVVRVLEMLEALVNEGSLALEELKMERDHLRKEVEGLRRQSPPASGEVNLGPNKMVVDLTDPNRPRFTLQELRDVLQERNKLKSQLLVVQAELQCYKSGLIPPREGPGGRREKDAVVTSAKNAGRNKEEKTIIKKLFFFRSGKQT [E157A], the “effect of a mutation on the interaction” value is “decreasing interaction strength”.

As to MEEPPVREEEEEEGEEDEERDEVGPEGALGKSPFQLTAEDVYDISYLLGRELMALGSDPRVTQLQFKVVRVLEMLEALVNEGSLALEELKMERDHLRKEVEGLRRQSPPASGEVNLGPNKMVVDLTDPNRPRFTLQELRDVLQERNKLKSQLLVVQKELQCYKSGLIPPREGPGGRREKDAVVTSAKNAGRNKEEKTIIKKLFFFRSGKQT [E157K], the “effect of a mutation on the interaction” value is recorded as “decreasing interaction strength”.

A further experiment covers variants of B2. The conditions noted are these: with rab8a_human RAB8A, P61006.
On to MEEPPVREEEEEEGEEDEERDEVGPEGALGKSPFQLTAEDVYDISYLLGRELMALGSDPRVTQLQFKVVRVLEMLEALVNEGSLALEELKMERDHLRKEVEGLRRQSPPASGEVNLGPNKMVVDLTDPNRPAFTLQELRDVLQERNKLKSQLLVVQEELQCYKSGLIPPREGPGGRREKDAVVTSAKNAGRNKEEKTIIKKLFFFRSGKQT [R132A], for which the “effect of a mutation on the interaction” value is listed as “disrupting interaction strength”.
